Changes are numbered by the printed parent chain. Numbers in names are those of the source.

Here are results for 55 molecules from publication PMC12416549 (2024).

T1: TNFR1 (Homo sapiens, UniProt P19438)
T1 chain: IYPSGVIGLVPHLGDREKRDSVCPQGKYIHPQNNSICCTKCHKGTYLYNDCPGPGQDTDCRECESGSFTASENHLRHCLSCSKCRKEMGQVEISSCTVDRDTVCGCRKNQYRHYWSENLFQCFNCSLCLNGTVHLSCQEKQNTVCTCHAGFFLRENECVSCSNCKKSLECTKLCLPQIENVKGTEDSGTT

B1: E34L (designed binder)
chain: SMEEEVEKAAKEYEKKKKEAIEKHLEKLKAKDKLAAERFLKELEEAAKEYAKDEAKTMSEEEAKRRAKKYKEKVLLSELSEEEQKEIKEAEEKLVRTILKYVEEAAK
B2: I98V (designed binder)
chain: B1 chain with L34E, I98V
B3: A47V (designed binder)
chain: B1 chain with L34E, A47V
B4: Y70H (designed binder)
chain: B1 chain with L34E, Y70H
B5: E26F (designed binder)
chain: B1 chain with E26F, L34E
B6: S80A (designed binder)
chain: B1 chain with L34E, S80A
B7: E4L (designed binder)
chain: B1 chain with E4L, L34E
B8: K31M (designed binder)
chain: B1 chain with K31M, L34E
B9: E91S (designed binder)
chain: B1 chain with L34E, E91S
B10: A46C (designed binder)
chain: B1 chain with L34E, A46C
B11: E7R (designed binder)
chain: B1 chain with E7R, L34E
B12: K41F (designed binder)
chain: B1 chain with L34E, K41F
B13: L99T (designed binder)
chain: B1 chain with L34E, L99T
B14: S80P (designed binder)
chain: B1 chain with L34E, S80P
B15: K23P (designed binder)
chain: B1 chain with K23P, L34E
B16: A67H (designed binder)
chain: B1 chain with L34E, A67H
B17: E89V (designed binder)
chain: B1 chain with L34E, E89V
B18: A20G (designed binder)
chain: B1 chain with A20G, L34E
B19: E104T (designed binder)
chain: B1 chain with L34E, E104T
B20: K16I (designed binder)
chain: B1 chain with K16I, L34E
B21: E44I (designed binder)
chain: B1 chain with L34E, E44I
B22: K73A (designed binder)
chain: B1 chain with L34E, K73A
B23: S59Y (designed binder)
chain: B1 chain with L34E, S59Y
B24: L99V (designed binder)
chain: B1 chain with L34E, L99V
B25: K56M (designed binder)
chain: B1 chain with L34E, K56M
B26: K71E (designed binder)
chain: B1 chain with L34E, K71E
B27: R38A (designed binder)
chain: B1 chain with L34E, R38A
B28: K48P (designed binder)
chain: B1 chain with L34E, K48P
B29: E26S (designed binder)
chain: B1 chain with E26S, L34E
B30: E72L (designed binder)
chain: B1 chain with L34E, E72L
B31: K73Y (designed binder)
chain: B1 chain with L34E, K73Y
B32: A90Q (designed binder)
chain: B1 chain with L34E, A90Q
B33: L75T (designed binder)
chain: B1 chain with L34E, L75T
B34: Q84R (designed binder)
chain: B1 chain with L34E, Q84R
B35: E72P (designed binder)
chain: B1 chain with L34E, E72P
B36: K56V (designed binder)
chain: B1 chain with L34E, K56V
B37: F39T (designed binder)
chain: B1 chain with L34E, F39T
B38: K29M (designed binder)
chain: B1 chain with K29M, L34E
B39: D32A (designed binder)
chain: B1 chain with D32A, L34E
B40: K15P (designed binder)
chain: B1 chain with K15P, L34E
B41: A63P (designed binder)
chain: B1 chain with L34E, A63P
B42: V95E (designed binder)
chain: B1 chain with L34E, V95E
B43: E7C (designed binder)
chain: B1 chain with E7C, L34E
B44: E62R (designed binder)
chain: B1 chain with L34E, E62R
B45: K85G (designed binder)
chain: B1 chain with L34E, K85G
B46: A106F (designed binder)
chain: B1 chain with L34E, A106F
B47: K16A (designed binder)
chain: B1 chain with K16A, L34E
B48: K41R (designed binder)
chain: B1 chain with L34E, K41R
B49: A90R (designed binder)
chain: B1 chain with L34E, A90R
B50: Y50D (designed binder)
chain: B1 chain with L34E, Y50D
B51: L43M (designed binder)
chain: B1 chain with L34E, L43M
B52: K41C (designed binder)
chain: B1 chain with L34E, K41C
B53: A105T (designed binder)
chain: B1 chain with L34E, A105T
B54: K71Q (designed binder)
chain: B1 chain with L34E, K71Q
B55: S1Q (designed binder)
chain: B1 chain with S1Q, L34E

In this test the target is T1, TNFR1. In words: yeast display SC50.
As for B1, the “apparent Kd (screen)” value came out at 0.446 nM.
For B2, the “apparent Kd (screen)” value was 11.4 nM.
B3: the “apparent Kd (screen)” value is 0.49 nM.
The result for B4 reads 5.31 nM; that for B5, 0.956 nM; that for B6, 1.16 nM.
To B7 belongs 0.79 nM; to B8, 0.49 nM; to B9, 10.4 nM.
Consider B10, for which the “apparent Kd (screen)” value was 1.86 nM.
On to B11, for which the “apparent Kd (screen)” value was 5.84 nM.
The result for B12 reads 0.718 nM.
Consider B13, for which the “apparent Kd (screen)” value came out at 5.31 nM.
The result for B14 reads 0.446 nM.
With B15, the “apparent Kd (screen)” value was 11.4 nM.
To B16 belongs 10.4 nM; to B17, 2.73 nM.
The result for B18 reads 2.73 nM; that for B19, 0.49 nM.
The result for B20 reads 0.446 nM; that for B21, 0.956 nM; that for B22, 12.5 nM.
With B23, the “apparent Kd (screen)” value was found to be 7.78 nM.
With B24, the “apparent Kd (screen)” value was found to be 2.25 nM.
The result for B25 reads 0.718 nM; that for B26, 2.73 nM.
As for B27, the “apparent Kd (screen)” value was 2.73 nM.
With B28, the “apparent Kd (screen)” value came out at 12.5 nM.
To B29 belongs 0.539 nM; to B30, 0.446 nM; to B31, 10.4 nM.
The result for B32 reads 0.49 nM; that for B33, 0.446 nM.
With B34, the “apparent Kd (screen)” value was found to be 1.4 nM.
The result for B35 reads 1.05 nM; that for B36, 2.73 nM; that for B37, 2.73 nM.
To B38 belongs 0.869 nM; to B39, 1.4 nM; to B40, 6.43 nM.
The result for B41 reads 6.43 nM.
As to B42, the “apparent Kd (screen)” value was determined as 11.4 nM.
With B43, the “apparent Kd (screen)” value worked out at 6.43 nM.
Turning to B44, the “apparent Kd (screen)” value is 0.49 nM.
The result for B45 reads 0.49 nM.
To B46 belongs 13.8 nM; to B47, 2.73 nM.
The result for B48 reads 0.869 nM; that for B49, 0.446 nM.
In the case of B50, the “apparent Kd (screen)” value is 7.78 nM.
On to B51, for which the “apparent Kd (screen)” value was determined as 1.86 nM.
The result for B52 reads 0.49 nM; that for B53, 0.869 nM.
The result for B54 reads 0.446 nM; that for B55, 0.539 nM.
